Test results taken from patent US20150344570A1 (published 2015).
Blank lines part the entries; values can stand above or below the binder they belong to.

Assays:
[1] = molecular target: T1, FcγRIIIa extracellular domain with C-terminal His tag (human, UniProt P08637 17-208); assay: SPR (Biacore), antibody captured, FcγR as analyte; binding activity relative to control heterodimerized antibody
T1 construct: extracellular domain; also called FcgRIIIa; 3a; not shown: His tag attached to the C terminus
Procedure: (§1) The heterodimerized antibodies He Abs in which one of the H chains was introduced with an alteration were assayed for their binding activities to each activating FcγR and inhibitory FcγR according to the method described in Example 4. […] The activating FcγRs in FIGS. 26, 27, 28, and 29 are FcγRIa, FcγRIIa (R), FcγRIIa (H), and FcγRIIIa, respectively.
(§2) Analysis of interaction between objective antibody and the FcγR was carried out using Biacore T100 (GE Healthcare). HBS-EP+ (GE Healthcare) was used as the running buffer, and the measurement temperature was set to 25° C. Chips produced by immobilizing the antigen peptide by the amine coupling method to a Series S Sencor Chip CM5 (GE Healthcare), or alternatively, chips produced by allowing preliminarily biotinylated antigen peptides to interact with and immobilize onto a Series S Sensor Chip SA (certified) (GE Healthcare) were used. Antibodies of interest were captured onto an antigen peptide-immobilized chip, and allowed to interact to each FcγR diluted with running buffer. To regenerate and repeatedly use the chip, the antibodies captured on the chip were washed off by reacting 10 mM glycine-HCl, pH 1.5.

[2] = molecular target: T2, FcγRIIb extracellular domain with C-terminal His tag (human, UniProt P31994 43-217); assay: as above
T2 construct: extracellular domain; Soluble receptor expressed in FreeStyle293 cells and used as analyte in Biacore; also called FcgRIIb; 2b; not shown: His tag attached to the C terminus
T2 sequence (looked up): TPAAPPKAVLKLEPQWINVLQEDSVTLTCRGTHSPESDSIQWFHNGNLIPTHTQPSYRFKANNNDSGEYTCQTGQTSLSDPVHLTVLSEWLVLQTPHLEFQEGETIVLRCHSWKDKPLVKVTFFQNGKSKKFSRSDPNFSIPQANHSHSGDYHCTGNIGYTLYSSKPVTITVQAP
Procedure: as §1, §2

[3] = molecular target: T1, FcγRIIIa extracellular domain with …; assay: SPR (Biacore); He/Con_3a divided by He/Con_2b (FcγRIIIa over FcγRIIb)
Procedure: as §1, §2

[4] = molecular target: T3, FcγRIa (human, UniProt P12314 16-292); assay: SPR (Biacore); He/Con_1a divided by He/Con_2b (binding to FcγRIa against binding to FcγRIIb)
T3 construct: extracellular domain; Soluble extracellular domain with C-terminal His tag, used as analyte in Biacore; also called FcgRI; 1a; not shown: His tag attached to the C terminus
Procedure: as §1, §2

[5] = molecular target: T4, FcγRIIb (human, UniProt P31994 43-217); assay: SPR (Biacore), antibody captured, FcγR as analyte; relative to GpH7-A5/GpH7-B3/GpL16-k0 = 100
T4 construct: extracellular domain; Soluble extracellular domain with C-terminal His tag, used as analyte in Biacore; also called FcgRIIb; 2b; not shown: His tag attached to the C terminus
T4 sequence (looked up): T2 sequence (looked up)
Procedure: as §1, §2

[6] = molecular target: T3, FcγRIa; assay: as above
Procedure: as §1, §2

T3 sequence (P12314 16-292): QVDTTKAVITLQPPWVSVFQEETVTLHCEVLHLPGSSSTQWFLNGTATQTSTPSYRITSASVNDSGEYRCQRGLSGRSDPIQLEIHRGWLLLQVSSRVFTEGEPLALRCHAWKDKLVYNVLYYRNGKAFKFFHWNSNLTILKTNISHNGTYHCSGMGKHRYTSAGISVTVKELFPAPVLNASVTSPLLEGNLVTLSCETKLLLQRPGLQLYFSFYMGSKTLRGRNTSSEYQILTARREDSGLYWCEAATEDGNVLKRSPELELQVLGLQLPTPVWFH
T1 sequence (P08637 17-208): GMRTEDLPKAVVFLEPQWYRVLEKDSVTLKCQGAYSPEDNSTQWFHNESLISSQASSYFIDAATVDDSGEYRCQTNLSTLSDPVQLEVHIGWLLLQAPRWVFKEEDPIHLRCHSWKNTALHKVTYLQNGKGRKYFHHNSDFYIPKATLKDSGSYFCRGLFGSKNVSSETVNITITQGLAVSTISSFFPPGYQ

B2: GpH7-A5/GpH7-B3 variant G237_02A/GpL16-k0 (antibody, human IgG1, kappa)
heavy 1: not shown
heavy 2: not shown
light: DIVMTQSPLSLPVTPGEPASISCQASESLVHSNRNTYLHWYLQKPGQSPQLLIYKVSNRFSGVPDRFSGSGSGTDFTLKISRVEAEDVGVYYCSQNTHVPPTFGQGTKVEIERTVAAPSVFIFPPSDEQLKSGTASVVCLLNNFYPREAKVQWKVDNALQSGNSQESVTEQDSKDSTYSLSSTLTLSKADYEKHKVYACEVTHQGLSSPVTKSFNRGEC
notes: Heterodimerized anti-glypican-3 IgG1; alteration in the GpH7-B3 chain only; also called He Ab
He_1a/2b (Ia/IIb) [4]: 0.73 ratio | He/Con_2b [5]: 124 % of control (=100) | He/Con_1a [6]: 90.3 % of control (=100)

B3: GpH7-A5/GpH7-B3 variant L235_09D/GpL16-k0 (antibody, human IgG1, kappa)
heavy 1: not shown
heavy 2: not shown
light: B2 light
notes: as for B2
He_1a/2b (Ia/IIb) [4]: 0.8 ratio | He/Con_2b [5]: 106 % of control (=100) | He/Con_1a [6]: 84.8 % of control (=100)

B6: GpH7-A5/GpH7-B3 variant P238_08L/GpL16-k0 (antibody, human IgG1, kappa)
heavy 1: not shown
heavy 2: not shown
light: B2 light
notes: as for B2
He_1a/2b (Ia/IIb) [4]: 0.49 ratio | He/Con_2b [5]: 204 % of control (=100) | He/Con_1a [6]: 101 % of control (=100)

B9: GpH7-A5/GpH7-B3 variant E269_13S/GpL16-k0 (antibody, human IgG1, kappa)
heavy 1: not shown
heavy 2: not shown
light: B2 light
notes: Heterodimerized anti-glypican-3 IgG1 with the alteration in only one H chain; also called He Ab
He/Con_3a [1]: 62.7 % of GpH7-A5/GpH7-B3/GpL16-k0 (=100) | He/Con_2b [2]: 47.8 % of GpH7-A5/GpH7-B3/GpL16-k0 (=100) | He_3a/2b [3]: 1.31 ratio

B12: GpH7-A5/GpH7-B3 variant D270_19Q/GpL16-k0 (antibody, human IgG1, kappa)
heavy 1: not shown
heavy 2: not shown
light: B2 light
notes: as for B9
He/Con_3a [1]: 81.9 % of GpH7-A5/GpH7-B3/GpL16-k0 (=100) | He/Con_2b [2]: 48 % of GpH7-A5/GpH7-B3/GpL16-k0 (=100) | He_3a/2b [3]: 1.7 ratio

B15: GpH7-A5/GpH7-B3 variant Q295_02A/GpL16-k0 (antibody, human IgG1, kappa)
heavy 1: not shown
heavy 2: not shown
light: B2 light
notes: as for B9
He/Con_3a [1]: 106 % of GpH7-A5/GpH7-B3/GpL16-k0 (=100) | He/Con_2b [2]: 79.7 % of GpH7-A5/GpH7-B3/GpL16-k0 (=100) | He_3a/2b [3]: 1.32 ratio

B16: GpH7-A5/GpH7-B3 variant Q295_01G/GpL16-k0 (antibody, human IgG1, kappa)
heavy 1: not shown
heavy 2: not shown
light: B2 light
notes: as for B9
He/Con_3a [1]: 73 % of GpH7-A5/GpH7-B3/GpL16-k0 (=100) | He/Con_2b [2]: 46 % of GpH7-A5/GpH7-B3/GpL16-k0 (=100) | He_3a/2b [3]: 1.59 ratio

B17: GpH7-A5/GpH7-B3 variant E269_18N/GpL16-k0 (antibody, human IgG1, kappa)
heavy 1: not shown
heavy 2: not shown
light: B2 light
notes: as for B9
He/Con_3a [1]: 57.8 % of GpH7-A5/GpH7-B3/GpL16-k0 (=100) | He/Con_2b [2]: 44.8 % of GpH7-A5/GpH7-B3/GpL16-k0 (=100) | He_3a/2b [3]: 1.29 ratio

The remaining lines, values ahead:

He/Con_3a [1]: 56.5 % of GpH7-A5/GpH7-B3/GpL16-k0 (=100) | He/Con_2b [2]: 40.3 % of GpH7-A5/GpH7-B3/GpL16-k0 (=100) | He_3a/2b [3]: 1.4 ratio
B1: GpH7-A5/GpH7-B3 variant D270_18N/GpL16-k0 (antibody, human IgG1, kappa)
heavy 1: not shown
heavy 2: not shown
light: B2 light
notes: as for B9

He/Con_3a [1]: 65 % of GpH7-A5/GpH7-B3/GpL16-k0 (=100) | He/Con_2b [2]: 44.3 % of GpH7-A5/GpH7-B3/GpL16-k0 (=100) | He_3a/2b [3]: 1.47 ratio
B4: GpH7-A5/GpH7-B3 variant E269_19Q/GpL16-k0 (antibody, human IgG1, kappa)
heavy 1: not shown
heavy 2: not shown
light: B2 light
notes: as for B9

He_1a/2b (Ia/IIb) [4]: 0.63 ratio | He/Con_2b [5]: 130 % of control (=100) | He/Con_1a [6]: 81.6 % of control (=100)
B5: GpH7-A5/GpH7-B3 variant G237_06M/GpL16-k0 (antibody, human IgG1, kappa)
heavy 1: not shown
heavy 2: not shown
light: B2 light
notes: as for B2

He_1a/2b (Ia/IIb) [4]: 0.32 ratio | He/Con_2b [5]: 312 % of control (=100) | He/Con_1a [6]: 101 % of control (=100)
B7: GpH7-A5/GpH7-B3 variant P238_04F/GpL16-k0 (antibody, human IgG1, kappa)
heavy 1: not shown
heavy 2: not shown
light: B2 light
notes: as for B2

He/Con_3a [1]: 81.5 % of GpH7-A5/GpH7-B3/GpL16-k0 (=100) | He/Con_2b [2]: 60.8 % of GpH7-A5/GpH7-B3/GpL16-k0 (=100) | He_3a/2b [3]: 1.34 ratio
B8: GpH7-A5/GpH7-B3 variant Q295_09D/GpL16-k0 (antibody, human IgG1, kappa)
heavy 1: not shown
heavy 2: not shown
light: B2 light
notes: as for B9

He/Con_3a [1]: 58.5 % of GpH7-A5/GpH7-B3/GpL16-k0 (=100) | He/Con_2b [2]: 46.7 % of GpH7-A5/GpH7-B3/GpL16-k0 (=100) | He_3a/2b [3]: 1.25 ratio
B10: GpH7-A5/GpH7-B3 variant E269_06M/GpL16-k0 (antibody, human IgG1, kappa)
heavy 1: not shown
heavy 2: not shown
light: B2 light
notes: as for B9

He_1a/2b (Ia/IIb) [4]: 0.52 ratio | He/Con_2b [5]: 152 % of control (=100) | He/Con_1a [6]: 79.6 % of control (=100)
B11: GpH7-A5/GpH7-B3 variant G237_15Y/GpL16-k0 (antibody, human IgG1, kappa)
heavy 1: not shown
heavy 2: not shown
light: B2 light
notes: as for B2

He_1a/2b (Ia/IIb) [4]: 0.43 ratio | He/Con_2b [5]: 221 % of control (=100) | He/Con_1a [6]: 96 % of control (=100)
B13: GpH7-A5/GpH7-B3 variant P238_09D/GpL16-k0 (antibody, human IgG1, kappa)
heavy 1: not shown
heavy 2: not shown
light: B2 light
notes: as for B2

He_1a/2b (Ia/IIb) [4]: 0.58 ratio | He/Con_2b [5]: 167 % of control (=100) | He/Con_1a [6]: 96.6 % of control (=100)
B14: GpH7-A5/GpH7-B3 variant G236_09D/GpL16-k0 (antibody, human IgG1, kappa)
heavy 1: not shown
heavy 2: not shown
light: B2 light
notes: as for B2
